Test results published in patent US20120231013A1 (Amgen, published 2012).
Values joined by “and” are separate entries in the source; they are usually repeats but may differ in a detail not shown here. Identical values can stand only once.

T1: recombinant human TIMP-3 (human, UniProt P35625 24-211)
T1 construct: also called HuTIMP-3; huTIMP-3
T1 sequence (looked up): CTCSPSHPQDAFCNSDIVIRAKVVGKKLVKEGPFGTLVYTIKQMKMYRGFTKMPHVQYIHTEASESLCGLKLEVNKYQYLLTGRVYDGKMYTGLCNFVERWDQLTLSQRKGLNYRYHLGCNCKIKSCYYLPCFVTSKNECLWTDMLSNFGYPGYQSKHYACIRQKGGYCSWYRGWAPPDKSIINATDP

T2: recombinant mouse TIMP-3 (mouse, UniProt P39876 24-211)
T2 construct: also called MuTIMP-3
T2 sequence (looked up): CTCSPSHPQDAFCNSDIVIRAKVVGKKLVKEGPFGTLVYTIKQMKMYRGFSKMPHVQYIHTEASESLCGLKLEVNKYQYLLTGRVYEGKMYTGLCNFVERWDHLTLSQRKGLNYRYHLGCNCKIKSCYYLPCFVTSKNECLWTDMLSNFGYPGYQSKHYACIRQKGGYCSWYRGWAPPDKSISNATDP


How the values were obtained:
[1] = target: T3, recombinant TIMP-3 (human or mouse; Table 2 does not say which); experiment: binding ELISA, Assay 2
T3 construct: The methods say 'human or mouse TIMP-3'

[2] = target: T3, recombinant TIMP-3 (human or mouse; …); experiment: AlphaScreen, biotinylated TIMP-3, Assay 1
Experimental: (§1) Peptides were also evaluated by AlphaScreen® (Amplified Luminescent Proximity Homogeneous Assay; PerkinElmer, Waltham, Mass.) a very sensitive non-radioactive homogeneous assay technology that allows the screening of a large range of biological interactions and activities, substantially according to the manufacturer's instructions. Briefly, all dilutions are made in AlphaScreen® Buffer: [40 mM HEPES pH 7.5, 100 mM NaCl, 1 mM CaCl2, 0.1% BSA, 0.05% Tween-20]. The LRP-1 peptides are titrated in a separate polypropylene 96-well plate (Falcon) starting at 4 microM concentration and then diluted serially 3-fold for 12-points, with the last point buffer only. First 2 microL/well of protein titration curve is added to white, small volume, 384-well assay plate (Greiner Bio-One, Stonehouse, UK) in duplicate. Next, 2 microL of biotinylated (AFS, in-house conjmicroGation) recombinant human or mouse TIMP-3, is added at 12 nM (or 3 nM final assay concentration) to the assay plate. Lastly, in subdued light 4 microL of a mixture of streptavidin donor beads, anti-mouse IgG acceptor beads (PerkinElmer) both diluted to 20 microG/mL (10 microG/mL final assay concentration) and 2 nM (1 nM final concentration) rat-anti-HA (clone3F10)-HRP (Roche Diagnostics) is added to the plates. Plates containing 8 microL final assay volme are covered with TopSeal A (to prevent evaporation), spun quickly at 1000 rpm, and incubated overnight (covered with foil to prevent light exposure) before reading on Fusion plate reader (PerkinElmer) using AlphaScreen® parameters (excitation 680 nm and emission 520-620 nm). Data is analyzed using GraphPad Prism 4.01 software. Binding to TIMP-3 is reported as total signal (cps).

MMP-13 = MMP-13 (UniProt P45452 20-471, limits assumed); experiment: cell-based or functional assay
recombinant human TIMP-3 [3] = target: T1, recombinant human TIMP-3; experiment: direct ELISA, coated huTIMP-3
Experimental: (§2) After incubation, the coating solution is removed and replaced with 250 microL/well of blocking buffer (1% BSA, TBS [pH 7.5], 1 mM CaCl₂) and incubated with shaking for 1 hour at room temperature. The plates are then washed three times with 200 microL/well with wash buffer 1 (TBS [pH 7.5], 1 mM CaCl₂). The LRP-1 peptides are titrated in assay buffer (0.1% BSA, TBS [pH 7.5], 1 mM CaCl₂, 0.02% Tween-20) in a separate polypropylene non-treated round-bottom 96-well plate (BD Falcon™) starting at 1 microM concentration and then diluted serially 4-fold for 8-points, with the last point buffer only. Then 100 microL/well of the diluted LRP-1 peptide titration is added to the TIMP-3 coated plate and allowed to bind for 1.5 hour at room temperature with shaking. After incubation, the plate is washed three times with 200 microL/well of wash buffer 2 (TBS [pH 7.5], 1 mM CaCl₂, 0.02% Tween-20). […] The assay plate is then washed three times with 200 microL/well with wash buffer 2. The plate is developed by adding 100 microL/well of 1:1 mixture of TMB and H₂O₂ (Pierce, Fisher Thermo Scientific, Rockford Il.), the reaction is stopped by adding 100 microL/well 2NH₂SO₄ (VWR), and read on a SpectraMax microplate reader (Molecular Devices, Sunnyvale, Calif.) at OD450 nm using SOFTmax Pro software version 3.1.2. Data is analyzed using GraphPad Prism 4.01 software. Binding of LRP-1 peptides to TIMP-3 is expressed as binding EC50.

recombinant mouse TIMP-3 = target: T2, recombinant mouse TIMP-3; experiment: direct ELISA, coated muTIMP-3
Experimental: as §2

recombinant human TIMP-3 [4] = target: T1, recombinant human TIMP-3; experiment: indirect ELISA, huTIMP-3 captured by anti-TIMP-3 clone 277128
Experimental: Then 100 microL/well of the diluted LRP-1 peptide titration is added to the TIMP-3 coated plate and allowed to bind for 1.5 hour at room temperature with shaking. After incubation, the plate is washed three times with 200 microL/well of wash buffer 2 (TBS [pH 7.5], 1 mM CaCl₂, 0.02% Tween-20). […] The assay plate is then washed three times with 200 microL/well with wash buffer 2. The plate is developed by adding 100 microL/well of 1:1 mixture of TMB and H₂O₂ (Pierce, Fisher Thermo Scientific, Rockford Il.), the reaction is stopped by adding 100 microL/well 2NH₂SO₄ (VWR), and read on a SpectraMax microplate reader (Molecular Devices, Sunnyvale, Calif.) at OD450 nm using SOFTmax Pro software version 3.1.2. Data is analyzed using GraphPad Prism 4.01 software. Binding of LRP-1 peptides to TIMP-3 is expressed as binding EC50.
After incubation, the plate contents are discarded and 250 microL/well of blocking buffer (1% BSA, TBS [pH 7.5], 1 mM CaCl₂) is added to the plate which is incubated with shaking for 1 hour at room temperature. The plate is then washed three times with 200 microL/well with wash buffer 1 (TBS [pH 7.5], 1 mM CaCl₂) followed by the addition of 100 microL of 20 nM recombinant human TIMP-3. The plate is incubated at room temperature for 1 hour. The LRP-1 peptides are titrated as described previously, and 100 microL/well of the diluted LRP-1 peptide titration is added to the TIMP-3 coated plate and allowed to bind for 1.5 hour at room temperature with shaking. After incubation, the plate is washed and the ELISA performed substantially as described previously for the direct binding ELISA.

recombinant human TIMP-3 [5] = target: T1, recombinant human TIMP-3; experiment: cell-based or functional assay
[6] = target: T3, recombinant TIMP-3 (human or mouse; …); experiment: AlphaScreen, biotinylated TIMP-3, Assay 2
Experimental: as §1

Row | Binder | EC50 [1] | total signal (cps) [2] | Direct Inhibition of MMP13 (% decrease), 1000 nM (MMP-13) | EC50 (recombinant human TIMP-3 [3]) | EC50 (recombinant mouse TIMP-3) | EC50 (recombinant human TIMP-3 [4]) | % of the inhibitory activity of TIMP-3 + peptide compared to TIMP-3 alone, 16 nM (recombinant human TIMP-3 [5]) | % of the inhibitory activity of TIMP-3 + peptide compared to TIMP-3 alone, 80 nM (recombinant human TIMP-3 [5]) | % of the inhibitory activity of TIMP-3 + peptide compared to TIMP-3 alone, 2000 nM (recombinant human TIMP-3 [5]) | % of the inhibitory activity of TIMP-3 + peptide compared to TIMP-3 alone, 400 nM (recombinant human TIMP-3 [5]) | total signal (cps) [6]
1 | LRP-1 peptide LA6 (Tags implied (Ni-NTA, anti-HA detection), not described) not shown | 1210 nM | 2200 cps | 57% | 95 nM | 38 nM | 9 nM | – | – | – | – | –
2 | LRP-1 peptide LA11-20 (peptide) not shown | – | – | 26% | – | – | – | – | – | – | – | –
3 | CGPSSFSCPGTHVCVPERWLCDGDKDCADGADESIAAGCLYNST (Tags implied (Ni-NTA, anti-HA detection), not described) [LRP-1 peptide LA17] | – | 2200 cps | 41% | 886 nM | – | – | – | 93% | 77% | 77% | –
4 | LRP-1 peptide LA5 (peptide) not shown | – | – | 69% | – | – | – | – | – | – | – | –
5 | LRP-1 peptide LA3 (peptide) not shown | – | – | 7% | – | – | – | – | 84% | 109% | 80% | –
6 | LRP-1 peptide LA7 (The end 1061 is inferred from the end of LA5-7; Tags implied, not described) not shown | ~2500 nM | 2200 cps | – | – | – | – | – | – | – | – | –
7 | LRP-1 peptide LA4-5 (peptide) CPSDRFKCENNRCIPNRWLCDGDNDCGNSEDESNATCSARTCPPNQFSCASGRCIPISWTCDLDDDCGDRSDESASCAYPT | – | – | 26% | – | – | – | – | 101% | 104% | – | –
8 | LRP-1 peptide LA16 (peptide) not shown | – | – | 20% | – | – | – | 105% | 101% | 89% | 52% | –

Next, values leading:

Row | EC50 [1] | total signal (cps) [2] | Direct Inhibition of MMP13 (% decrease), 1000 nM (MMP-13) | EC50 (recombinant human TIMP-3 [3]) | EC50 (recombinant mouse TIMP-3) | EC50 (recombinant human TIMP-3 [4]) | % of the inhibitory activity of TIMP-3 + peptide compared to TIMP-3 alone, 16 nM (recombinant human TIMP-3 [5]) | % of the inhibitory activity of TIMP-3 + peptide compared to TIMP-3 alone, 80 nM (recombinant human TIMP-3 [5]) | % of the inhibitory activity of TIMP-3 + peptide compared to TIMP-3 alone, 2000 nM (recombinant human TIMP-3 [5]) | % of the inhibitory activity of TIMP-3 + peptide compared to TIMP-3 alone, 400 nM (recombinant human TIMP-3 [5]) | total signal (cps) [6] | Binder
9 | 300 nM | 2200 cps | 32% | – | – | 972 nM | – | – | – | – | – | LRP-1 peptide LA28 (Tags implied (Ni-NTA, anti-HA detection), not described) not shown
10 | – | – | 47% | – | – | – | – | – | – | – | – | LRP-1 peptide LA27 (peptide) not shown
11 | – | – | 46% | – | – | – | 104% | 107% | 84% | – | – | CLPSQFKCTNTNRCIPGIFRCNGQDNCGDGEDERDCPEVT [LRP-1 peptide LA23]
12 | – | – | 0% | – | – | – | – | – | – | – | – | CNASSQFLCSSGRCVAEALLCNGQDDCGDSSDERGCHINE [LRP-1 peptide LA20]
13 | 1020 nM | 2200 cps | -2% | 303 nM | 206 nM | 313 nM | – | – | – | – | – | LRP-1 peptide LA21 (Tags implied (Ni-NTA, anti-HA detection), not described) not shown
14 | 426 nM | 2200 cps | 59% | 456 nM and 340 nM | 394 nM and 478 nM | 185 nM and 200 nM | – | – | – | – | – | LRP-1 peptide LA22 (Tags implied (Ni-NTA, anti-HA detection), not described) not shown
15 | – | – | 19% | – | – | – | 97% | 96% | 107% | 100% | – | LRP-1 peptide LA21-23 (peptide) not shown
16 | ~600 nM | 2200 cps | – | 187 nM | 140 nM | 85 nM | – | – | 53% | 92% | 2000 cps | LRP-1 peptide LA23-24 (Tags implied (Ni-NTA, anti-HA detection), not described) not shown
17 | – | – | 53% | – | – | – | 100% | 100% | – | 104% | – | LRP-1 peptide LA26-28 (peptide) CEPYQFRCKNNRCVPGRWQCDYDNDCGDNSDEESCTPRPCSESEFSCANGRCIAGRWKCDGDHDCADGSDEKDCTPRCDMDQFQCKSGHCIPLRWRCDADADCMDGSDEEACGTGVRT
18 | 300 nM | 2200 cps | 1% | 118 nM | 134 nM | 179 nM | 96% | 109% | 108% | 112% | – | LRP-1 peptide LA26 (Tags implied (Ni-NTA, anti-HA detection), not described) not shown
